Measurements published in patent US12312641B2, “Sensitivity marker for antibody-drug conjugate” (priority 2018, dated 2025).

Test system: relapsed and advanced non-small cell lung cancer
Assay: Phase 1 study, dose escalation part, maximum tumor change rate
Format: in vivo, human
Description: In a dose escalation part of a Phase 1 study for patients with relapsed and advanced non-small cell lung cancer, the antibody-drug conjugate (1) was administered intravenously once every three weeks until unacceptable toxicity or worsening of the pathological condition was observed. The dose-limiting toxicity was determined in Cycle 1 (Days 1-21). Tumor sampling was performed after entry into the clinical study following the first dose. Note that a minus value in the maximum tumor change rate means that the tumor has been reduced by administration of antibody-drug conjugate (1).
Gene expression data of each patient were obtained by EdgeSeq after preparing a section from a formalin-fixed paraffin-embedded specimen of tumor tissue of each patient prior to antibody-drug conjugate (1) administration, and cutting out a tumor site by laser microdissection. The obtained count data were normalized by the Median normalization method, thereby the amount of expression of each gene was obtained. All the above tests were performed at HTG Molecular Diagnostics, Inc.
To the Median Normalized Count (MNC) value, after being obtained and normalized at HTG Molecular Diagnostics, Inc., 1 was added, and the sum was transformed to a logarithmic (log2) to obtain a log2[MNC+1] value (Table 15). The log2[MNC+1] value was used to analyze the relationship between the anti-tumor activity of antibody-drug conjugate (1) in each patient (Table 14) and the amount of expression of the hTROP2 gene and the SLFN11 gene. When all of the evaluated patients were grouped into groups having at least a certain amount of expression of the hTROP2 and SLFN11 genes (Table 16), it was shown that the proportion of patients showing at least a certain drug efficacy (maximum tumor change rate of 0% or less) is higher as the hTROP2 gene expression and the SLFN11 gene expression increases (Table 17). In the absence of grouping by SLFN11 gene expression, the proportion of patients showing the maximum tumor change rate of 0% or less was not more than 75 to 80%. […] For example, when the log2[MNC+1] value of the hTROP2 gene exceeds 12 and the log2[MNC+1] value of the SLFN11 gene exceeds 11.5, the proportion of patients in which the maximum tumor change rate is 0% or less is about 80% to 100%.

B1: antibody-drug conjugate (1): humanized anti-hTROP2 antibody (SEQ ID NO: 1 residues 20-470, SEQ ID NO: 2 residues 21-234) conjugated to the exatecan-derivative drug-linker via a thioether bond (conjugate, chains of the INN, looked up)
VH: QVQLVQSGAEVKKPGASVKVSCKASGYTFTTAGMQWVRQAPGQGLEWMGWINTHSGVPKYAEDFKGRVTISADTSTSTAYLQLSSLKSEDTAVYYCARSGFGSSYWYFDVWGQGTLVTVSS
VL: DIQMTQSPSSLSASVGDRVTITCKASQDVSTAVAWYQQKPGKAPKLLIYSASYRYTGVPSRFSGSGSGTDFTLTISSLQPEDFAVYYCQQHYITPLTFGQGTKLEIK
modifications: exatecan-derivative drug-linker
Maximum tumor change rate (%) (Patient #1, 2 mg/kg intravenously once every three weeks): −7.14%
Maximum tumor change rate (%) (Patient #2, 2 mg/kg intravenously once every three weeks): −68.52%
Maximum tumor change rate (%) (Patient #3, 2 mg/kg intravenously once every three weeks): −4.76%
Maximum tumor change rate (%) (Patient #4, 2 mg/kg intravenously once every three weeks): −11.70%
Maximum tumor change rate (%) (Patient #5, 2 mg/kg intravenously once every three weeks): 52.00%
Maximum tumor change rate (%) (Patient #6, 2 mg/kg intravenously once every three weeks): 3.15%
Maximum tumor change rate (%) (Patient #7, 4 mg/kg intravenously once every three weeks): 33.33%
Maximum tumor change rate (%) (Patient #8, 4 mg/kg intravenously once every three weeks): −53.13%
Maximum tumor change rate (%) (Patient #9, 6 mg/kg intravenously once every three weeks): −52.27%
Maximum tumor change rate (%) (Patient #10, 8 mg/kg intravenously once every three weeks): −3.47%
Maximum tumor change rate (%) (Patient #11, 8 mg/kg intravenously once every three weeks): −35.46%
Maximum tumor change rate (%) (Patient #12, 8 mg/kg intravenously once every three weeks): −63.64%
Proportion of patients showing a maximum tumor change rate of 0% or less (log2[MNC+1]: hTROP2 >12, SLFN11 >11.5, 8 patients): 88%
Proportion of patients showing a maximum tumor change rate of 0% or less (log2[MNC+1]: hTROP2 >12, SLFN11 >12.5, 4 patients): 100%
Proportion of patients showing a maximum tumor change rate of 0% or less (log2[MNC+1]: hTROP2 >12, SLFN11 All, 9 patients): 78%
Proportion of patients showing a maximum tumor change rate of 0% or less (log2[MNC+1]: hTROP2 >14, SLFN11 >11.5, 5 patients): 80%
Proportion of patients showing a maximum tumor change rate of 0% or less (log2[MNC+1]: hTROP2 >14, SLFN11 >12.5, 2 patients): 100%
Proportion of patients showing a maximum tumor change rate of 0% or less (log2[MNC+1]: hTROP2 >14, SLFN11 All, 5 patients): 80%
Proportion of patients showing a maximum tumor change rate of 0% or less (log2[MNC+1]: hTROP2 All, SLFN11 >11.5, 11 patients): 82%
Proportion of patients showing a maximum tumor change rate of 0% or less (log2[MNC+1]: hTROP2 All, SLFN11 >12.5, 5 patients): 100%
Proportion of patients showing a maximum tumor change rate of 0% or less (log2[MNC+1]: hTROP2 All, SLFN11 All, 12 patients): 75%
